Assays:
Assay in all cases: purified protein
purified protein [1] = substrate: N[C@@H](CCC=O)C(=O)O; assay type: biochemical, Bacillus subtilis; conditions: 1 mM NADP+, 100 mM potassium phosphate pH 7.6, room temperature, reverse (dehydrogenase) direction, apparent KM corrected to free GSA aldehyde/hydrate
purified protein [2] = substrate: CC(=O)N[C@@H](CCC=O)C(=O)O; assay type: biochemical, Bacillus subtilis; conditions: 1 mM NADP+, 100 mM potassium phosphate pH 7.6, room temperature, reverse (dehydrogenase) direction, promiscuous substrate, apparent KM, NAGSA in equilibrium with its hydrate
purified protein [3] = substrate: N[C@@H](CCC=O)C(=O)O; assay type: biochemical, Methanosarcina acetivorans; conditions: 1 mM NADP+, 100 mM potassium phosphate pH 7.6, room temperature, reverse (dehydrogenase) direction, apparent KM corrected to free GSA aldehyde/hydrate
purified protein [4] = substrate: N[C@@H](CCC=O)C(=O)O; assay type: biochemical, Saccharophagus degradans; conditions: 1 mM NADP+, 100 mM potassium phosphate pH 7.6, room temperature, reverse (dehydrogenase) direction, apparent KM corrected to free GSA aldehyde/hydrate
purified protein [5] = substrate: CC(=O)N[C@@H](CCC=O)C(=O)O; assay type: biochemical, Saccharophagus degradans; conditions: 1 mM NADP+, 100 mM potassium phosphate pH 7.6, room temperature, reverse (dehydrogenase) direction, promiscuous substrate, apparent KM, NAGSA in equilibrium with its hydrate
purified protein [6] = substrate: N[C@@H](CCC=O)C(=O)O; assay type: biochemical, Escherichia coli; conditions: 1 mM NADP+, 100 mM potassium phosphate pH 7.6, room temperature, reverse (dehydrogenase) direction, apparent KM corrected to free GSA aldehyde/hydrate
purified protein [7] = substrate: CC(=O)N[C@@H](CCC=O)C(=O)O; assay type: biochemical, Escherichia coli; conditions: 1 mM NADP+, 100 mM potassium phosphate pH 7.6, room temperature, reverse (dehydrogenase) direction, promiscuous substrate, apparent KM, NAGSA in equilibrium with its hydrate
purified protein [8] = substrate: N[C@@H](CCC=O)C(=O)O; conditions: 1 mM NADP+, 100 mM potassium phosphate pH 7.6, room temperature, reverse (dehydrogenase) direction, apparent KM corrected to free GSA aldehyde/hydrate
purified protein [9] = substrate: CC(=O)N[C@@H](CCC=O)C(=O)O; conditions: 1 mM NADP+, 100 mM potassium phosphate pH 7.6, room temperature, reverse (dehydrogenase) direction, promiscuous substrate, apparent KM, NAGSA in equilibrium with its hydrate

B1: Bacillus subtilis ProA (Bacillus subtilis subsp. subtilis str. 168) (protein)
chain: MSEVSVKAKLAKEAAAEMIMKTTAEKDEALSLIANGLRKELDFLLAENAKDIVNGKENGLTPDIIDRLSLDEKRIRDIADAVELLIDLADPIGDSLETIEKENGLFIEKIRVPLGVVGMIYEARPNVTVDAATLCLKTGNAVVLRGSSSAIHSNKALVSVIYRALEQSALPIHAVQLIEDTSRETAKELFTLNDGLDVLIPRGGKKLIDLVVRESTVPVLETGAGNCHIFIDETAKPQMAEKVVVNAKTQRPSVCNAIESLLIHKAWARQHGKELLDQLENAGVEIRGDELVCELHPSSKQASKEDWETEFLAPVLSVKTVENVQEAVKHIQQYGTNHSEAILTENDKNAVYFQTAVDAAAVYHNASTRFTDGFEFGYGAEIGISTQKLHARGPMGLPALTSTKYIIKGTGQIRE
notes: His-tagged, pTrcHisB, expressed in delta-argC delta-proA E. coli BW25113 (DE3)
For B1, the Km (purified protein [1]) was 150 ± 20 µM, the kcat (purified protein [1]) was 1.7 ± 0.2 s⁻¹ and the kcat/Km (purified protein [1]) was 11000 ± 1000 M⁻¹ s⁻¹. For the same protein, the Km (purified protein [2]) was 6000 ± 1500 µM, the kcat (purified protein [2]) was 0.0014 ± 0.0003 s⁻¹ and the kcat/Km (purified protein [2]) was 0.24 ± 0.015 M⁻¹ s⁻¹.

B2: Methanosarcina acetivorans ProA (Methanosarcina acetivorans C2A) (protein)
chain: MAEDIETKVVKAKKASIELSSVSEEVKNRALEAMAESLDRERKAILEANSKDLEYASELKKVGKLTQALVDRLKVTDSKIDGMIAGIMDVIKLKDPVGETLSTLELDNDLILYQISCPIGLIGVIFESRPDVVPQVMSLCLKSGNATIFKGGSEARESNRTIFEILVKAIESTEGMPKGAFQLMETREEIMSLLSLDAYVDLLIPRGSNEFVKFIQDNTKIPVLGHTSGICHIYVDEFADPDTAWKVCFDAKVQYPAVCNAIETLLVNRKIAEAFLPKMAEMYIKAGVELRCDKDSYILLAEKGLSPLSKATEEDWSLEYNDLILSIKLVDTIKEAIAHINTFGSHHTDGIITENASRRKEFIGLVDSSSVMVNASTRFADGYRYGKGAEVGISTNKIHSRGPVGMEGLLIYKYILMGKGQVVADYAGENAKPYTHRKLDLKFADVN
notes: as for B1
B2 was tested, and the Km (purified protein [3]) was 14 ± 4 µM, the kcat (purified protein [3]) was 0.43 ± 0.03 s⁻¹ and the kcat/Km (purified protein [3]) was 25000 ± 11000 M⁻¹ s⁻¹.

B3: Saccharophagus degradans ProA (Saccharophagus degradans 2-40) (protein)
chain: MTVQDYMLTLGKQARAASRQMASADTGKKNAALLAIADAINSARDTIAAENARDMEAGRANGLDAALLDRLELTPERIDGMIEGLNQVAALPDPCGEITDLKYRPSGIQLGKKRTPLGVVGIIYESRPNVTVDAASLCLKSGNAAILRGGSEAIHSNKAVAVCIAAGLKAAGLPETAVQVVETTDRAAVGELITMTKYVDVVVPRGGKSLIERISADARVSVIKHLDGICHVYVDKTANLDKAFNIVINSKTHRYGVCNAMETMLVDEAIAADFLPRAAKEFAARGVELRGCEKTVALLTASDIPVVAALEEDWDTEYLAPILSIKLVANMDEAIEHINNHGSHHTDALVSENYTLARKFLTEVDSSSVMINASTRFADGFEYGLGAEIGISTDKIHARGPVGLEGLTSQKWIVFGDGHIRN
notes: as for B1
Work on B3 yielded a Km (purified protein [4]) of 85 ± 13 µM, a kcat (purified protein [4]) of 0.4 ± 0.04 s⁻¹ and a kcat/Km (purified protein [4]) of 4700 ± 400 M⁻¹ s⁻¹. For the same protein, the Km (purified protein [5]) was 820 ± 160 µM, the kcat (purified protein [5]) was 3e-05 ± 3e-06 s⁻¹ and the kcat/Km (purified protein [5]) was 0.037 ± 0.004 M⁻¹ s⁻¹.

B4: E. coli ProA (GP reductase) (Escherichia coli K-12) (protein)
chain: MLEQMGIAAKQASYKLAQLSSREKNRVLEKIADELEAQSEIILNANAQDVADARANGLSEAMLDRLALTPARLKGIADDVRQVCNLADPVGQVIDGGVLDSGLRLERRRVPLGVIGVIYEARPNVTVDVASLCLKTGNAVILRGGKETCRTNAATVAVIQDALKSCGLPAGAVQAIDNPDRALVSEMLRMDKYIDMLIPRGGAGLHKLCREQSTIPVITGGIGVCHIYVDESVEIAEALKVIVNAKTQRPSTCNTVETLLVNKNIADSFLPALSKQMAESGVTLHADAAALAQLQAGPAKVVAVKAEEYDDEFLSLDLNVKIVSDLDDAIAHIREHGTQHSDAILTRDMRNAQRFVNEVDSSAVYVNASTRFTDGGQFGLGAEVAVSTQKLHARGPMGLEALTTYKWIGIGDYTIRA
notes: as for B1
B4 showed a Km (purified protein [6]) of 43 ± 3 µM, a kcat (purified protein [6]) of 5.1 ± 0.2 s⁻¹ and a kcat/Km (purified protein [6]) of 120000 ± 10000 M⁻¹ s⁻¹. For the same protein, the Km (purified protein [7]) was 480 ± 30 µM.

B5: Salmonella enterica ProA (Salmonella enterica subsp. enterica serovar Typhimurium str. LT2) (protein)
chain: MLEQMGIAAKAASYKLALLSSGEKNRVLEKIADELEAQMESILSANVQDVEQARANGLSEAMLDRLALTPARLKAIADDVRQVCNLADPVGQVIDGGLLDSGLRLERRRVPLGVVGVIYEARPNVTVDVASLCLKTGNAVILRGGKETYRTNAATVRVIQKALKACGLPEAAVQAIDNPDRSLVNEMLRMDKYIDMLIPRGGAGLHKLCREQSTIPVITGGIGVCHIFVDSSADIAPALKIIVNAKTQRPSTCNTVETLLVHQDIAERFLPALSKQMAESGVTLHGDETVMQVLHGPAKLVPLKPEELDNEFLSLDLNVVVVENMDGAIAHIREHGTQHSDAILTCDMHNAARFVNEVDSAAVYVNASTRFTDGGQFGLGAEVAVSTQKLHARGPMGLEALTTYKWIGFGDGTIRA
Work on B5 yielded a Km (purified protein [8]) of 54 ± 12 µM, a kcat (purified protein [8]) of 3.7 ± 0.5 s⁻¹ and a kcat/Km (purified protein [8]) of 69000 ± 7000 M⁻¹ s⁻¹. The Km (purified protein [9]) was 2600 ± 100 µM.

Reference: paper PMC4271523, “Differential Effects of a Mutation on the Normal and Promiscuous Activities of Orthologs: Implications for Natural and Directed Evolution” (Molecular Biology and Evolution, 2014)
